{"source": "patent US20050287527A1", "about": "“Quantitative ranking of transient ligand binding to target biomolecules” (National Research Council of Canada, priority 2002, published 2005)", "key": {"[1]": {"biological_target": "human α-thrombin (human), P00734", "assay": "15N CPMG NMR relaxation dispersion of thrombin-cleaved FD22, two-site fit, highest thrombin:ligand ratio; Arg47; FD22-C present; 288 K"}, "[2]": {"biological_target": "human α-thrombin (human), P00734", "assay": "15N CPMG NMR relaxation dispersion of thrombin-cleaved FD22, two-site fit at the highest thrombin concentration; Arg47; FD22-C present; 288 K"}, "[3]": {"biological_target": "human prothrombin (human), P00734", "assay": "15N CPMG NMR relaxation dispersion, linear three-site fit of Glu57; 298 K"}, "[4]": {"biological_target": "human prothrombin (human), P00734", "assay": "15N CPMG NMR relaxation dispersion, full three-site fit of eighteen curves; 298 K"}, "[5]": {"biological_target": "human prothrombin (human), P00734", "assay": "15N CPMG NMR relaxation dispersion, linear three-site fit of eighteen curves; 298 K"}, "[6]": {"biological_target": "human prothrombin (human), P00734", "assay": "15N CPMG NMR relaxation dispersion, two-site fit; Glu57; 288 K"}, "[7]": {"biological_target": "human prothrombin (human), P00734", "assay": "15N CPMG NMR relaxation dispersion, two-site fit; Glu58; 288 K"}, "[8]": {"biological_target": "human prothrombin (human), P00734", "assay": "15N CPMG NMR relaxation dispersion, two-site fit; Glu62; 288 K"}, "[9]": {"biological_target": "human prothrombin (human), P00734", "assay": "15N CPMG NMR relaxation dispersion, two-site fit; Ile59; 288 K"}, "[10]": {"biological_target": "human prothrombin (human), P00734", "assay": "15N CPMG NMR relaxation dispersion, two-site fit; Phe56; 288 K"}, "[11]": {"biological_target": "human prothrombin (human), P00734", "assay": "15N CPMG NMR relaxation dispersion, two-site fit; Tyr63; 288 K"}}, "data": [{"binder": "FDPR (modifications not checked)", "note": "[FD22-N]", "values": [{"measurement": "pb (apparent fraction of the bound peptide)", "setting": "[1]", "value": 3.2, "unit": "%"}, {"measurement": "koff", "setting": "[2]", "value": 310, "unit": "s⁻¹"}]}, {"binder": "DFEEIPEEYLQ (not fully specified; modifications not checked)", "note": "[N-acetyl-Hir(55-65)]", "values": [{"measurement": "pb1 (population of the dissociation-competent bound state)", "setting": "[3]", "value": 1.3, "unit": "%"}, {"measurement": "pb2 (population of the second bound state)", "setting": "[3]", "value": 4, "unit": "%"}, {"measurement": "pb=pb1+pb2 (total bound population)", "setting": "[3]", "value": 5.3, "unit": "%"}, {"measurement": "pb1 (population of the first bound state)", "setting": "[4]", "value": 1.45, "unit": "%"}, {"measurement": "pb2 (population of the second bound state)", "setting": "[4]", "value": 1.5, "unit": "%"}, {"measurement": "pb (total bound population)", "setting": "[4]", "value": 3, "unit": "%"}, {"measurement": "pb1 (population of the first bound state)", "setting": "[5]", "value": 2.3, "unit": "%"}, {"measurement": "pb2 (population of the second bound state)", "setting": "[5]", "value": 1, "unit": "%"}, {"measurement": "pb (total bound population)", "setting": "[5]", "value": 3.35, "unit": "%"}]}, {"binder": "GDFEEIPEEYLQ (modifications not checked)", "note": "[Hir(54-65)]", "values": [{"measurement": "pb (apparent fraction of the bound peptide)", "setting": "[6]", "value": 4.9, "unit": "%"}, {"measurement": "pb (apparent fraction of the bound peptide)", "setting": "[7]", "value": 6.5, "unit": "%"}, {"measurement": "pb (apparent fraction of the bound peptide)", "setting": "[8]", "value": 6.9, "unit": "%"}, {"measurement": "pb (apparent fraction of the bound peptide)", "setting": "[9]", "value": 6, "unit": "%"}, {"measurement": "pb (apparent fraction of the bound peptide)", "setting": "[10]", "value": 4.5, "unit": "%"}, {"measurement": "pb (apparent fraction of the bound peptide)", "setting": "[11]", "value": 6.7, "unit": "%"}]}]}
